Source: patent US20250059241A1 (SYNGENTA CROP PROTECTION, published 2025)

Assays:
[1] = target: SMALP-Sf-ABCC2-FLAG (Sf-ABCC2 extracted from silkworm pupae membranes with styrene maleic acid and affinity purified) (Spodoptera frugiperda); test: immuno-magnetic separation with SMALP-Sf-ABCC2 and anti-FLAG magnetic beads; colonies on LB-tet
[2] = target: T1, Spore-Cry1Aa (Bacillus subtilis spores displaying the Bacillus thuringiensis Cry1Aa protein as a … (Bacillus thuringiensis, UniProt P0A366 1-621)); test: flow cytometry of spores labelled with Bm-ABCC2, anti-FLAG mouse antibody and Alexa-labelled anti-mouse IgG, after a wash with 0.2% SDS
T1 construct: vector pSB634 or pHY300PLK

[3] = target: T2, Spore-Cry1Fa (Bacillus subtilis spores displaying the Bacillus thuringiensis Cry1Fa protein as a … (Bacillus thuringiensis, UniProt Q03746 1-615)); test: bright field and fluorescence microscopy of spores mixed with Sf9 cells
T2 construct: vector pSB634 or pHY300PLK
T2 sequence: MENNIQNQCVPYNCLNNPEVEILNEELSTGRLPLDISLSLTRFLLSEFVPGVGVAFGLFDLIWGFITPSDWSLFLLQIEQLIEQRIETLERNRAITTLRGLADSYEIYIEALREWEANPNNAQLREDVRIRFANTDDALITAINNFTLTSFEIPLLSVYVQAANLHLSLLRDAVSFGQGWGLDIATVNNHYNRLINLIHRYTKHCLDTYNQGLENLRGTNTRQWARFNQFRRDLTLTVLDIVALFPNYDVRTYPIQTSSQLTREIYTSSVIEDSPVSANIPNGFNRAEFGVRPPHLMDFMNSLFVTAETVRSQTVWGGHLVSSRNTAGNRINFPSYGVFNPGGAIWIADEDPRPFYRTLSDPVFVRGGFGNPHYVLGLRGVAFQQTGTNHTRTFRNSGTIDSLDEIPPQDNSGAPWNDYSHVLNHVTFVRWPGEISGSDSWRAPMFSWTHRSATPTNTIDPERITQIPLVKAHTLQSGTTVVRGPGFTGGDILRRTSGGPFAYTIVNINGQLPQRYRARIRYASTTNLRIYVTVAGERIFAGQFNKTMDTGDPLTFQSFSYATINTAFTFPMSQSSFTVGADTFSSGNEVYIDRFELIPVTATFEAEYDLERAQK

[4] = target: T2, Spore-Cry1Fa (Bacillus subtilis spores …); test: microscopy of spores on Sf9 cells expressing Sf-ABCC2
[5] = target: T2, Spore-Cry1Fa (Bacillus subtilis spores …); test: immuno-magnetic separation with anti-FLAG magnetic beads

For “Spore-pSB634 (Bacillus subtilis spores carrying the empty vector pSB634, no Cry protein displayed)”, the spores (colonies) pulled out by the magnetic beads from 10^6 spores (spores (colonies)) [1] was 9.

B1: Bm-ABCC2 solubilized in 1% Triton X100 and affinity purified (C-terminal FLAG tag) (receptor)
chain: MNSDGRAGENSSAETRRKPHKPNILSRIFLWWMCPVLVKGNQRDTVEDDLIIPKKSFNSENQGEYLERYWLQEYEAAIKEKREPSLWTALRKAYWLGYMPGAIYLIIISVFRIIQPLVFAELLSYWSVEATITRLEASYYALALLGINFINMMCQHHNSLFVARFGLKVKVACSSLVYRKLLRMDQVALGDVSGGKLVNLLSNDVARFDYAFMFLHYLWVVPVQAAVVLYFLYISAGYAPFVGFFGVVILILPIQAGLTKLTSVVRRETAQRTDRRIKLMTEIINGIQVIKMYAWEKPFQAIVKVARNFEMIALRKSIFIRSVFLGFMLFTERSIIFITCLTFLLTGNLVTATLIYPIQQYISIIQINLTMILPLAIASLSEMLVSLERIQNFLVKDEREDVQITPKSYGDDNRLIFNNKASLGPQNEIIPKKYLATDGQLASTLTNEPVLSTDPAVCDYPIELSKVDATWSSSTDTSEMTLRNITLRIGRGKLCAIIGPVGSGKSSILQVLLKELPVCGGSLRINGRLSYACQESWLFPATVRENILFGLPYDSQKYHEVCKACSLLPDFKQFPYGDLSLVGERGVSLSGGQRARINLARAVYREADIYLLDDPLSAVDANVGRQLFDGCIKGYLRGRTCVLVTHQIHYLKAADIIVILNEGAIENVGSYDDLVNTGTEFSKLLTNQESNDNENGPEKNFLRAISKISTKSVEDPDNEKVQVEEEEKRAKGNLKFSVLYKYLSAVKSWFLVFLMVVTLVITQGCATFIDYWLSFWTNQVDEYEQSLAEGEEPSTSLDTQAGAFTLGVYLWTYGGVILILIVISHVRILTFVITTMRASSNFHDTVYKKLIITVMRFFDMNPSGRVLNRFSKDMGAMDEFLPRSLFETVQMYLTLCSILILNAIALPWTLIPTAVLLILFFVLLKWYLNAAQAVKRLEGTTKSPVLGMINSTLTGLSTIRSSNSQGRLLQMFDNAQNLHTSAFYTFVGGSTAFGLYLDALCLVYLGVILTIFLVIDFSTLIPVGSVGLAVSQSMVLTMMLQMAARFTADFLGQMTAVERVLEYTELPMEENMYDGSQLPKDWPTHGRIEFQNLFLNYSQEDPPVLKDLNFVIENGWKVGVVGRTGAGKSSMISALFRLYELQGHIRIDGIDTNIIAKTELRSKISIIPQEPILFSASVRYNLDPFDSYSDDEIWRALEQVELKEVIPALDYKVSEGGSNFSVGQRQLVCLARAVLRSNKILVMDEATANVDPQTDALIQTTIRREFASCTVITIAHRLNTIMDSDRVLVMDKGVVAEYDTPYALLSDPNSIFSSMVRETGDTMSKVLFRVAEDKHLGRNTEKDYKDDDDK
B1: binds [2].

B2: Sf-ABCC2-Mutant (ABCC2 from a Cry1Fa-resistant Spodoptera frugiperda strain, C-terminal FLAG tag) expressed on Sf9 cells (receptor)
chain: MDKSNKNTAANGNGGQRAGEPKERVRKKPNILSRIFVWWIFPVLITGNKRDVEEDDLIVPSKKFNSERQGEYFERYWFEEVAIAEREDRDPSLWKAMRRAYWLQYMPGAIFVLLISGLRTAQPLLFSQLLSYWSVDSEMSQQDAGLYALAMLGINFITMMCTHHNNLFVMRFSMKVKIAASSLLFRKLLRMSQVSVGDVAGGKLVNLLSNDVARFDYAFMFLHYLWVVPLQVGVVLYFVYDAAGWAPYVGLFGVIILIMPLQAGLTKLTGVVRRMTAKRTDKRIKLMSEIINGIQVIKMYAWEKPFQLVVKAARAYEMSALRKSIFIRSMFLGFMLFTERSVMFLTVLTLALTGNMISATLIYPIQQYFGIITMNVTLILPMAFASFSEMLISLERIQGFLLLDERSDIQITPKVVNGAGSKLFNNSKKEGGLETGIVLPTKYSPTEANMARPMQDEPNMADYPVQLNKVNATWADLNDNKEMTLKNISSRVRKNKLCAVIGPVGSGKTSLLQLLLRELPVTSGNLSISGTVSYASQEPWLFPATVRENILFGLEYNVAKYKEVCKVCSLLPDFKQFPYGDLSLVGERGVSLSGGQRARINLARAVYREADIYLLDDPLSAVDANVGRQLFDGCIKGYLSGKTCILVTHQIHYLKAADFIVVLNEGSVENMGSYDELMKTGTEFSMLLSDQASEGSDTDKKERPAMMRGISKMSVKSDDEEGEEKVQVLEAEERQSGSLKWDVLGRYMKSVNSWCMVVMAFLVLVITQGAATTTDYWLSFWTNQVDIQTLPEGESKNPELNTQVGLLTTGQYLIVHGSVVLAIIILTQVRILSFVVMTMRASENLHNTIYEKLIVAVMRFFDTNPSGRVLNRFSKDMGAMDELLPRSMLETVQMYLSLASVLVLNAIALPWTLIPTTVLMFIFVFLLKWYINAAQAVKRLEGTTKSPVFGMINSTISGLSTIRSSNSQDRLLNSFDDAQNLHTSAFYTFLGGSTAFGLYLDTLCLIYLGIIMSIFILGDFGELIPVGSVGLAVSQSMVLTMMLQMAAKFTADFLGQMTAVERVLEYTKLPTEENMETGPTTPPKDWPSAGEVTFSNVYLKYSPDDPPVLKDLNFAIKSGWKVGVVGRTGAGKSSLISALFRLSDITGSIKIDGLDTQGIAKKLLRSKISIIPQEPVLFSASLRYNLDPFDNYNDEDIWRALEQVELKESIPALDYKVSEGGTNFSMGQRQLVCLARAILRSNKILIMDEATANVDPQTDALIQKTIRKQFATCTVLTIAHRLNTIMDSDRVLVMDQGVAAEFDHPYILLSNPNSKFSSMVKETGDNMSRILFEVAKTKYESDSKTADYKDDDDK
notes: Expressed in Sf9 cells by baculovirus
B2: no binding [3].

B3: Sf-ABCC2 (Spodoptera frugiperda ABC transporter subfamily C type 2, C-terminal FLAG tag) expressed on Sf9 cells (receptor)
chain: MDKSNKNTAANGNGGQRAGEPKKRVRKKPNILSRIFVWWIFPVLITGNKRDVEEDDLIVPSKKFNSERQGEYFERYWFEEVAIAEREDRDPSLWKAMRRAYWLQYMPGAIFVLLISGLRTAQPLLFSQLLSYWSVDSEMSQQDAGLYALAMLGINFITMMCTHHNNLFVMRFSMKVKIAASSLLFRKLLRMSQVSVGDVAGGKLVNLLSNDVARFDYAFMFLHYLWVVPLQVGVVLYFVYDAAGWAPYVGLFGVIILIMPLQAGLTKLTGVVRRMTAKRTDKRIKLMSEIINGIQVIKMYAWEKPFQLVVKAARAYEMSALRKSIFIRSMFLGFMLFTERSVMFLTVLTLALTGNMISATLIYPIQQYFGIITMNVTLILPMAFASFSEMLISLERIQGFLLLDERSDIQITPKVVNGAGSKLFNNSKKEGGLETGIVLPTKYSPTEASIARPVQDEPNMADYPVQLNKVNATWADLNDNKEMTLKNISLRVRKNKLCAVIGPVGSGKTSLLQLLLRELPVTSGNLSISGTVSYASQEPWLFPATVRENILFGLEYNVAKYKEVCKVCSLLPDFKQFPYGDLSLVGERGVSLSGGQRARINLARAVYREADIYLLDDPLSAVDANVGRQLFDGCIKGYLSGKTCILVTHQIHYLKAADFIVVLNEGSVENMGSYDELMKTGTEFSMLLSDQASEGSDTDKKERPAMMQGISKMSVKSDDEEGEEKVQVLEAEERQSGSLKWDVLGRYMKSVNSWCMVVMAFLVLVITQGAATTTDYWLSFWTNQVDGYIQTLPEGESPNPELDTQVGLLTTGQYLIVHGSVVLAIIILTQVRILSFVVMTMRASENLHNTIYEKLIVAVMRFFDTNPSGRVLNRFSKDMGAMDELLPRSMLETVQMYLSLASVLVLNAIALPWTLIPTTVLMFIFVFLLKWYINAAQAVKRLEGTTKSPVFGMINSTISGLSTIRSSNSQDRLLNSFDDAQNLHTSAFYTFLGGSTAFGLYLDTLCLIYLGIIMSIFILGDFGELIPVGSVGLAVSQSMVLTMMLQMAAKFTADFLGQMTAVERVLEYTKLPTEENMETGPTTPPKGWPSAGEVTFSNVYLKYSPDDPPVLKDLNFAIKSGWKVGVVGRTGAGKSSLISALFRLSDITGSIKIDGLDTQGIAKKLLRSKISIIPQEPVLFSASLRYNLDPFDNYNDEDIWRALEQVELKESIPALDYKVSEGGTNFSMGQRQLVCLARAILRSNKILIMDEATANVDPQTDALIQKTIRKQFANCTVLTIAHRLNTIMDSDRVLVMDQGVAAEFDHPYILLSNPNSKFSSMVKETGDNMSRILFEVAKTKYESDSKTADYKDDDDK
notes: Expressed in Sf9 cells by baculovirus together with EGFP; also called Sf9::Sf-ABCC2; Sf9 expressing Sf-ABCC2
B3: binds [4].

B4: SMALP-Sf-ABCC2-FLAG (Sf-ABCC2 extracted from silkworm pupae membranes with styrene maleic acid and affinity purified) (receptor)
chain: B3 chain
notes: also called Sf-ABCC2 in SMALP
B4: binds [5].
